Assay results: article PMC6098113, “A 2′FY-RNA Motif Defines an Aptamer for Ebolavirus Secreted Protein”
Read-outs that look alike come from different tables or passages of the source.

Tests used:
[1] = target: T1, EBOV sGP (soluble glycoprotein) (Zaire ebolavirus (EBOV), UniProt P60170 33-324); experiment: filter binding; conditions: protein: recombinant, tags: 6xHis, chain copies: 2
[2] = target: T1, EBOV sGP (soluble glycoprotein); experiment: filter binding; 50 and 500 nM sGP; better than 5183; conditions: protein: recombinant; tags: 6xHis; chain copies: 2; label: 32P; central bulge of 5183 removed
[3] = target: T1, EBOV sGP (soluble glycoprotein); experiment: competition; 100-fold excess competes with 39SGP1A; conditions: protein: recombinant; tags: 6xHis; chain copies: 2; label: 32P (direct); hairpins (Mfold)
[4] = target: T1, EBOV sGP (soluble glycoprotein); conditions: protein: recombinant; tags: 6xHis; chain copies: 2
[5] = target: T1, EBOV sGP (soluble glycoprotein); experiment: filter binding; monomer basis; conditions: protein: recombinant; tags: 6xHis; chain copies: 2; label: 32P; hairpins (Mfold)
Human serum albumin = Human serum albumin (Homo sapiens (Human), UniProt P02768 25-609); experiment: filter; PBS + 5 mM MgCl2 pH 7.4; conditions: label: 32P
Human serum albumin, sequence (P02768 25-609): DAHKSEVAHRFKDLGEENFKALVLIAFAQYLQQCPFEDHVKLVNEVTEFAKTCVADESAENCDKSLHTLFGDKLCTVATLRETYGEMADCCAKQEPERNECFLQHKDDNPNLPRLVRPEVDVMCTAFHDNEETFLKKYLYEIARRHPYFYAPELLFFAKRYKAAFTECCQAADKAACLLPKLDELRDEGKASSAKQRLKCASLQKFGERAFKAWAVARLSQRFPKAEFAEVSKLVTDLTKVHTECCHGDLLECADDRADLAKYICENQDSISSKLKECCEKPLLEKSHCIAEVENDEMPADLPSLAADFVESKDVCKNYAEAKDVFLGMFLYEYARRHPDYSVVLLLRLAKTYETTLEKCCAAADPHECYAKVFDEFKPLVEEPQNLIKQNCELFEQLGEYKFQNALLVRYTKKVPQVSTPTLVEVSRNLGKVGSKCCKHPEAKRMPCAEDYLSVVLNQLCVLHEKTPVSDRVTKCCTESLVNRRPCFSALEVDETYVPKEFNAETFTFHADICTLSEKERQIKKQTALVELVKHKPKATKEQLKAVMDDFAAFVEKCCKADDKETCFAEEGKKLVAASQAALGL

[6] = target: T1, EBOV sGP (soluble glycoprotein); experiment: filter binding; up to 800 nM sGP; conditions: protein: recombinant; tags: 6xHis; chain copies: 2; label: 32P; hairpins (Mfold)
alpha2-macroglobulin = target: T2, alpha2-macroglobulin (UniProt P01023 24-1474); experiment: filter binding; 205 nM to 5 uM alpha2-macroglobulin; Buffer A: 137 mM NaCl, 2.7 mM KCl, 10 mM Na2HPO4, 2 mM KH2PO4, 5 mM MgCl2, pH 7.4, RT (23-24 C), 30 min; conditions: protein: commercial; label: 32P; hairpin
T2 sequence: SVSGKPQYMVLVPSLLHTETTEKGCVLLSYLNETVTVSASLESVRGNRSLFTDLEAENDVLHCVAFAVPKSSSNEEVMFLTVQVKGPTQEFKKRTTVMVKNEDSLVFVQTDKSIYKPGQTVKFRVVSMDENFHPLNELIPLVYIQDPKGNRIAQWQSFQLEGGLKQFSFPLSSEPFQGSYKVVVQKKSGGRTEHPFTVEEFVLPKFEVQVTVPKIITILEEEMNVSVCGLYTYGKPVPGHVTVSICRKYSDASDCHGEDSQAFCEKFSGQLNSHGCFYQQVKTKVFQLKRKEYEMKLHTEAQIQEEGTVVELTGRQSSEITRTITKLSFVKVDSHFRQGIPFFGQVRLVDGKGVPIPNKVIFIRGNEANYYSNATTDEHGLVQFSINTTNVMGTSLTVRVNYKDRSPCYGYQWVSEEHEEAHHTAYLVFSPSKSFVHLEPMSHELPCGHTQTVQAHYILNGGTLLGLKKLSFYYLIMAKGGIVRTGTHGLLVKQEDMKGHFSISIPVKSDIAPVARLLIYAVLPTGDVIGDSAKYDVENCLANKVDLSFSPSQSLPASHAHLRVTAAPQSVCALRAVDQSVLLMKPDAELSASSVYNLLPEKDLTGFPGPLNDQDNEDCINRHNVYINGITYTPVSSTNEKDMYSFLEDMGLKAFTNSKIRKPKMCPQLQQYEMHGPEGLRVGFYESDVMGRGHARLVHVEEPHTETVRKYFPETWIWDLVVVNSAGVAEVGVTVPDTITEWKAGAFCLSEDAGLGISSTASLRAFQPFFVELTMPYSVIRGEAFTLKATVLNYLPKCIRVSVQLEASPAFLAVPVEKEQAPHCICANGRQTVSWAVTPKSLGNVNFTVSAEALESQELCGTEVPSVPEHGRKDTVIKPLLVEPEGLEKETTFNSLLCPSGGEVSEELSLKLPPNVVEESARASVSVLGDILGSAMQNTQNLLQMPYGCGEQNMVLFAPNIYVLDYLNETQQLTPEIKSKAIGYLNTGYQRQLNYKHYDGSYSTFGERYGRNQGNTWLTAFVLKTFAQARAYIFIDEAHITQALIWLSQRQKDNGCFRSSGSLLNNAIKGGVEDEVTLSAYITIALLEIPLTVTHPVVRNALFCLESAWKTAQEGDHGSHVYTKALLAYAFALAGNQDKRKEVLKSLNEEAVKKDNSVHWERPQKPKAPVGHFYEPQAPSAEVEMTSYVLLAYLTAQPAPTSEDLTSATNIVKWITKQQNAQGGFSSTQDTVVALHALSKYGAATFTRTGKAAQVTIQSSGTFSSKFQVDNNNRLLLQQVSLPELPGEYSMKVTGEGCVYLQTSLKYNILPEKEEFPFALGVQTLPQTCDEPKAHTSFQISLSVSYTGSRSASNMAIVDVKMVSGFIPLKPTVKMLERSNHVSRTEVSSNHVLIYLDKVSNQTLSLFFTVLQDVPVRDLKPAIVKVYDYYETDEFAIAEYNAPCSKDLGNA

SUDV sGP = target: T3, SUDV sGP (Sudan virus (SUDV), UniProt Q7T9E0 33-324); experiment: filter binding; monomer basis; conditions: protein: commercial; chain copies: 2; label: 32P; hairpin
T3 sequence: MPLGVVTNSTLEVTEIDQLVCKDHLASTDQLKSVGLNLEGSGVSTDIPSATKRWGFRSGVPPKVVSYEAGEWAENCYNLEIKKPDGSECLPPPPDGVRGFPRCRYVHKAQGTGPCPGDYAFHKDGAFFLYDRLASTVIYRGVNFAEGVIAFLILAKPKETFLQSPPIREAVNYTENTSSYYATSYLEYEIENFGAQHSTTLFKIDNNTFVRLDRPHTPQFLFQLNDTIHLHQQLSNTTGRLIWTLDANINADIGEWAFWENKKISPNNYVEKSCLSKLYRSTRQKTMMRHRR

[7] = target: T1, EBOV sGP (soluble glycoprotein); experiment: filter binding; monomer basis; Fig S8 legend uses 50 nM; conditions: protein: recombinant; tags: 6xHis; chain copies: 2; label: 32P; hairpin
fibrinogen = fibrinogen (UniProt P02671;P02675;P02679 20-866;31-491;27-453); experiment: filter binding; 250 nM to 4 uM fibrinogen; Buffer A: 137 mM NaCl, 2.7 mM KCl, 10 mM Na2HPO4, 2 mM KH2PO4, 5 mM MgCl2, pH 7.4, RT (23-24 C), 30 min; conditions: protein: commercial; chain copies: 2;2;2; label: 32P; hairpin
fibrinogen, sequence (P02671 20-866, chain 1 of 3): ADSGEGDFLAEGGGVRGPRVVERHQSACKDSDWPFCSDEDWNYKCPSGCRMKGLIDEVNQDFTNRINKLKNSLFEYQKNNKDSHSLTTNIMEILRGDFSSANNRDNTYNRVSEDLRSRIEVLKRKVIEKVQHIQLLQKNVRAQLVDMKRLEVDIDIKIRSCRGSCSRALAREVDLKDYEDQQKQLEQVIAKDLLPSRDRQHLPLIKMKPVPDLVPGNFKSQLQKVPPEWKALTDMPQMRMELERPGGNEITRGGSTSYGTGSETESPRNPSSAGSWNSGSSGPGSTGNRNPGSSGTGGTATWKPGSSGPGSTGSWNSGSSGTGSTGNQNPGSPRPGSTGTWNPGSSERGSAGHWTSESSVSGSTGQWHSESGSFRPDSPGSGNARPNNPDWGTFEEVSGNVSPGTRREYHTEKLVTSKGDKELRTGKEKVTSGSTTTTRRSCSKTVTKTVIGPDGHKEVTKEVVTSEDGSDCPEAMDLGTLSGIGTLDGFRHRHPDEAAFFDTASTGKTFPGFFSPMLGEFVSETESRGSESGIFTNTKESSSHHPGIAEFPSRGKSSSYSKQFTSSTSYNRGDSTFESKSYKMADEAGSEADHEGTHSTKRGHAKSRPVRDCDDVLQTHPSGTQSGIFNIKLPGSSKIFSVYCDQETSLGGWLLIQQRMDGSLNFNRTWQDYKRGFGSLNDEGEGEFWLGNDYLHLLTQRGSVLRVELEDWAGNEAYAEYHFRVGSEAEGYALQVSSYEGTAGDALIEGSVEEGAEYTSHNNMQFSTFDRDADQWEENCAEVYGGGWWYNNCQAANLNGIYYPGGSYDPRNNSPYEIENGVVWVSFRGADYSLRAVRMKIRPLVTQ
fibrinogen, sequence (P02675 31-491, chain 2 of 3): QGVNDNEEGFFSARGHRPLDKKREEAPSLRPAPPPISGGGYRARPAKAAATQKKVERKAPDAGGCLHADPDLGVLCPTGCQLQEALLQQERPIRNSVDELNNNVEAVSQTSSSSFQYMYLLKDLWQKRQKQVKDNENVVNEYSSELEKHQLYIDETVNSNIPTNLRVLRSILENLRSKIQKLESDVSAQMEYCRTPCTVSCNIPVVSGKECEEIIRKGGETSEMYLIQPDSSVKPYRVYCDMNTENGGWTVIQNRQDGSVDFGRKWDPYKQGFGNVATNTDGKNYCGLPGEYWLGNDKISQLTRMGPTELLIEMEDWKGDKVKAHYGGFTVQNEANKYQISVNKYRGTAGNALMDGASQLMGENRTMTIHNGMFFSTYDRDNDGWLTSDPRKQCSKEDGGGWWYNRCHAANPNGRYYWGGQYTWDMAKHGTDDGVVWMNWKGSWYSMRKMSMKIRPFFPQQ
fibrinogen, sequence (P02679 27-453, chain 3 of 3): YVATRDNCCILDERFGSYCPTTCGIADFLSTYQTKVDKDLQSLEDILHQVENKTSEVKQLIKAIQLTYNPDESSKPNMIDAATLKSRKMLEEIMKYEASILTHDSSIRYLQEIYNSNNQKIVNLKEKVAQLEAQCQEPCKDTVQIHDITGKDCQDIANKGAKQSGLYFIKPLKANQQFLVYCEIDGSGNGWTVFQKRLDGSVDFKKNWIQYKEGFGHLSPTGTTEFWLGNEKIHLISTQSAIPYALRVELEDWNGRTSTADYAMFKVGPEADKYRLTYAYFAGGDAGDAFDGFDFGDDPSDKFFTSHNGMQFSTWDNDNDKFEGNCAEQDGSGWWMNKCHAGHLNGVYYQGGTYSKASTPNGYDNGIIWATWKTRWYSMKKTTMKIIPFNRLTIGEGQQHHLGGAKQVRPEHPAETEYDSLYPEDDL

[8] = target: T1, EBOV sGP (soluble glycoprotein); experiment: filter binding; 50 and 500 nM sGP; conditions: protein: recombinant; tags: 6xHis; chain copies: 2; label: 32P; 3' stem loop of 5183

T1 sequence (P60170 33-324): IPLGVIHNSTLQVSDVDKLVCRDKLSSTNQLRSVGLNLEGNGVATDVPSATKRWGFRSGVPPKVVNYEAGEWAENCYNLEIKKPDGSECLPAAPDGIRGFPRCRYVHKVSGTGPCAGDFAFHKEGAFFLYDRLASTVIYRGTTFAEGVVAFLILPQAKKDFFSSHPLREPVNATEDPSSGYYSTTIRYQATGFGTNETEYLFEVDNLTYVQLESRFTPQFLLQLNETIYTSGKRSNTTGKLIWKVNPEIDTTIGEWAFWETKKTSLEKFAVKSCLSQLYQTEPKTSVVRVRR

B1: 5182 2'FY-RNA (XNA)
RNA: GGGAGACAAGAAUAAACGCUCAAGUCUUUAUUUUUACACUUUUAUUUUACCUUGAGCUUCUUGACCAACAGUGCGCUUCGACAGGAGGCUCACAACAGGC
modifications: 2'-F on all C and U
With B1 as the binder, how does the Kd ([1]; label: 32P) read?
The Kd was under 100 nM.

B2: 5192 2'FY-RNA (XNA)
RNA: GGGAGACAUAAACGCUCAAUUUUUUAUUGCAUUUUUCUUUGAGCGUCAUUGUGUUUCCUUGAGCACUUCGACAGGAGGCUCACAACAGGC
modifications: 2'-F on all C and U
Does B2 bind [2]?
Result: binds

B3: 4789 2'FY-RNA (XNA)
RNA: GGGAGACAAGAAUAAACGCUCAAACGUAAUGCAGUCUGUGAGCUUCAGCAAGUAAAAUUAGCGCUGACCGACCCUGUUCGACAGGAGGCUCACAACAGGC
modifications: 2'-F on all C and U
Does B3 bind [3]?
Result: binds

B4: 4797 2'FY-RNA (XNA)
RNA: GGGAGACAAGAAUAAACGCUCAAAGCAACACAACGAGAUUAAACAAUCUAUUGUUAACAUUAAACAACUAGGCCGAUUCGACAGGAGGCUCACAACAGGC
modifications: 2'-F on all C and U
B4 was tested. Which Kd [4] did it give?
Its Kd is about 500 nM.

B5: 5183 2'FY-RNA (XNA)
RNA: GGGAGACAAGAAUAAACGCUCAAUUUUUUAUUGCAUUUUUCUUUGAGCGUCAUUGAUACCCUGUUUCCUUGAGCACUUCGACAGGAGGCUCACAACAGGC
modifications: 2'-F on all C and U; 2'-OH A and G
Which Kd [5] does the source give for B5 here?
Its Kd is 54 nM.

B6: 5183 2'OH RNA (structured_RNA)
RNA: B5 RNA
modifications: none (2'-OH)
Does B6 bind ([1]; label: 32P, hairpins (Mfold))?
Result: no binding

B7: 5183 (ssRNA)
RNA: B5 RNA
modifications: 2'-F pyrimidines
How did the Kd (Human serum albumin) turn out when B7 was run?
Its Kd is 400 nM.

B8: 2'FC-5183 (XNA)
RNA: B5 RNA
modifications: 2'-F on C only; U is 2'-OH
Does B8 bind [6]?
Result: no binding

B9: 5189 2'FY-RNA (XNA)
RNA: GGGAGACAAGAAUAAACGCUCAAUUUUUUAUUGCAUUUUUCUUUGAGCGUCAUUGAUACCCUGUUUCCU
modifications: 2'-F on all C and U
Does B9 bind ([1]; label: 32P)?
Result: binds

B10: 5179 2'FY-RNA (XNA)
RNA: GGGAGACAAGAAUAAACGCUCAAUCUUUUUAUUUUACUUUUUGUUGUAGAGCGCUUGUUUCUCUGAGUUGUAGCCAUUCGACAGGAGGCUCACAACAGGC
modifications: 2'-F on all C and U
For B10, which Kd ([1]; label: 32P (direct)) is on record?
Its Kd is under 100 nM.

Does GGGCGCUCAAUUUUUUAUUGCAUUUUUCUUUGAGCGCCC (XNA, 2'-F on all C and U) [39SGP1A (5199) 2'FY-RNA] bind (alpha2-macroglobulin)?
Result: no binding

And the Kd (SUDV sGP)?
The Kd was 240 nM.

What about the Kd [7] of the same binder?
The Kd was 27 nM.

Does GGGCGCUCAAUUUUUUAUUGCAUUUUUCUUUGAGCGCCC (XNA, 2'-F on all C and U) [39SGP1A (5199) 2'FY-RNA] bind (fibrinogen)?
Result: no binding

Which Kd (Human serum albumin) does the source give for GGGCGCUCAAUUUUUUAUUGCAUUUUUCUUUGAGCGCCC (ssRNA, 2'-F pyrimidines) [39SGP1A (5199)] here?
Its Kd is over 68000 nM.

B11: 5193 2'FY-RNA (XNA)
RNA: GGGAGACAAGAAUGAUACCCUGUUUCCUUGAGCUAUUCGACAGGAGGCUCACAACAGGC
modifications: 2'-F on all C and U
Does B11 bind [8]?
Result: no binding
